Laboratory results taken from the DeepSol protein solubility set.

Assay: soluble on expression in E. coli; label from the status in PepcDB or PDB records
For “MGSDKIHHHHHHAQQTSEVDLIDIAGGMEKLTELKVSDLGKTIRYIPLETTDSCLIGDFPNIKLLDDKIMVYNGKQCLLFDKETGKFICSVGHRGDDPEAYSSTCGYLNPKNQLLYFNRDPNQLVKYNQKGNFAGVITIPSPETSTGNIQINRPGMNGFVFSDSIIIGHYVGGLGQRCPSSVLYFSDKGNYIDTIPNIIPELGTGQVGDINNISVRKGFGLLEGIIQIQYNNGKQSICVPGYTALWKCNDEIRFKELFTDTIYTLKHNQLEKYIIFNTGKYYWPASERTLTDNNSDRIMISYAIENDKLLYFQFIRGLYTDKHILYNGIYDKNTKVTNIALAENNFVDDLTHFMPFTPSFLNEKGECASLVQAADILTWLEEHPEVKIEKELGVLKNLNEESNPVVVLVK”, the “soluble on expression in E. coli” value was “not soluble”.
In the case of “MGSDKIHHHHHHAQRINHVQEAIANYDYEAALTLIAKEKPTIPLLLQKGKAQRGLGMNTEALSTYQEIIANDTANTRAYIEAAECCRSLAKYQQALKYYEQALDLNPENKYVRIQYIGLLLSLQKFQDALGESSLMTEKDSSAIALHLQAQSFEGMGELLPATGCYYNIQEKYPDDYLAAAKLAALNIAGSYFNEAIEATEKYRQTDTTNIAVNRQNALAYCLNKDYPTAIQRYEYLVSQGDSSFHTCYYLGISYYAEEKYYEAHDFLEAARKHDPENVNLLYYLGRACAKTSWKKLGVEYLEKALDLTIPKDSNMVRLYIGMTDCYKMAQMPKEQIESIRERYRKYDKQNHKLLYDMAFIYFYSLKDKKNTERCLEAFLKTRPKEDKEEEAKLNERGELVLGTKNYYNAAANWLKDIQSKQKIEDFFLGGNVPAQKPE”, the “soluble on expression in E. coli” value is reported as “not soluble”.
With “MGSDKIHHHHHHAQVTPFTYFNVDWQFNAPISNNFANKASGWGMNFEGGYYVLPDLSIGAFINYHTNNEYISRQTLPISNSAALTTDQQHSVFQLPFGFATHYRFSDGACQPYIGLKLGANYTKMSSDFYIYEVKDNTWGFYVSPEVGVNIYPWTNSIGFHLAAFYSYSTNKGTVFNYDMDKLNNFGFRLGVAF” the “soluble on expression in E. coli” value was “not soluble”.
In the case of “MGSDKIHHHHHHASCSNDDDEMDKYQKIYIRTGVAPGAEMGAAVVVDCVSNSSTADRSDFEIQLCAVQPVTRDVTAALGVDTLKVDTYNSANKTKCKLLPQDNYTIETSEVVLKTGQTVADSSFQVVLKNIEKLTNPDGYVLPVTLKGVTGMDEQAVSTSMKTVYIRIYTSVLYTSYTKPGNWSAVDRSAWSVSCSNVYADDDAKYGAHLAIDGEINTTWFTWGVANAGECWWNTVLDRPVTLTGFSVTKQSAYGSGYNLRSAEIKVRKEGETEWVTYPRVLTFRNFKGADPQYAAIEPPIPNVKEFRINCLTPDNYTGFAEINLYVKQ”, the “soluble on expression in E. coli” value is reported as “not soluble”.
For “MGSDKIHHHHHHCGGSGSSEPVAPTTTPDTGFSFAATAMITNLTQEVIVTGYADLAAKGSELVLATQKLINSTSQADLVAAQDAWKAARQPWEQGESHIFGPVDSLSIDPHLDSWPLNTTDLSTQLTTAAGFDAETIKSWNDDVQGFHTMEYLLFGDGVADNTKDISELTVKEREYLIALAQVFRDHAKTLDDAWQINHKPDDANAKPYAELLSQPGVDGNTVYSSELAVIEELINGMIGIVDEVGNGKISDPFGDSITSADTSKVESQYSWNSLTDFANNIQGVRNVYQGEFTGNTDKQGVKDFVSAADANLAVRVASEIDDAIIKIQAISGSNSMPFRQAIKDANGRVRIQTAIDALTKLKTSLESDVIPLLSKWKPA”, the “soluble on expression in E. coli” value was “not soluble”.
In the case of “MGSDKIHHHHHHDDDIIGALLEGKMPQATPVPPPTTVAATVASIDPPALKPAVDPRWVHLHNVHTGEKLEAVYWENGDYVPDAVSALDKVLRDYRNDEVHPIDRGLYDLLDQIARKTQSKGPFQVISGYRSPATNRLLSKRSGEVAKKSLHMDGKAMDIFLEDVELKHVRAAALDLSVGGVGYYPTSNFVHVDVGPVRKWTGT”, the “soluble on expression in E. coli” value is reported as “not soluble”.
In the case of “MGSDKIHHHHHHDKNSAPGFSFTTDSILTLTFDKELDAAFVGVGTQNYNPVGMRRSGDTLFIANRAEGSDGVWVVRASTGELLYSLTGWTYNGKNEKFDNQVMDVAVSSDYIFVVNRSSRIDLFRRNDYSYVTTIGRTGWQSSSLLQCEAAEVAGDKLFIRDKQKIKVVQISDCTPENRFKVPVFAQNTDSTSSNNGFNLESVARHEGLIYVSDYETSRILVIDPATVAVKGEPVRFLRSYRMPNKPLSMGFFQNEMYVVCANNCIVRVDLRTGKELGSYSSFAGGVGLGTPGRLLFHNDTFYLAGRNANAPRLIQGKVMFVEISELD”, the “soluble on expression in E. coli” value is reported as “not soluble”.
In the case of “MGSDKIHHHHHHDLEEYRTTPKMVINSAFSPDTVVMASISRTWFHSESKPDVTIRNAKVELYIDGIFKEEMPWKEYSYWKSSRWLGEDRGGWVTDTLYISNTVPQPGQTVKIVASTPEYGTASAEDKIPSKTEIKGLRIIPRKEATGNGGTLVDGDGNISYIEENDVLIYQITFQDTPGKSNYYSLQIWGDDDHLGVLLDFSVDPVFTQQQGILDEVFGSSMVNWRGRVFSDELFDGKEYTLQVKEQLRSDTKYYTKRHIRLYSLSEPYYQYLLSLQNIKNEGIMGGLTNVGLAEPVRIYSNVEGGTGIAGGCQWFESLVDIKDLIK”, the “soluble on expression in E. coli” value is reported as “not soluble”.
For “MGSDKIHHHHHHDLLHESYGQVVSEDYVPKTEEDVSYLVNAAYIPWRETLLQWNGVVRAQELCADQDVLPARDGIGWVDGYIYKRWHQHTWTTEDDGVLQGWERTYNGVNTCNRILSQIEEGVISVDGETKEKLIAELKVLRASYYYILIDLYGNVPIVTDFKDTSLPQQSTRKEVFDFIVKEITENMDLLSETPRGYYYGRFNKWAAHTLLAKMYLNAEVWSGTAQWQKCIDECDIVINYAEKSGEYALENNQKDVFVTHNENSKEIIFALPFDEIYVTGWNDFDFHMYTLAPENQDTYQLTARPWGGVCAVPQFINSFDEDDARLEDNYIQGQQYTYSGEILKRSIDGKPLIYTVDVPSIDQSDVDDGFRWGKFEYATGITNRLSNDWPLLRYADVLMMKAESLMRLGKSGAGALVTQVRERAFKNEPEKAQVTDAELMGGSVYDYGRRDSYKTEHDGGTDIKYGRFLDELGWEFCQEGRRRQDMIRFGIFTTKAWFSHDKSDETKNLYPIPNKVLLTNSNLKQNPGYSK”, the “soluble on expression in E. coli” value was “not soluble”.
With “MGSDKIHHHHHHEDVYREVTASGAHNLTLAVDNPRNLGGADDAALARDVAEVLRFDMTLAGPFSVMAPPAGTSPGGIRPGEFDLDSWRNAGVDLLVKSGYTITGDSVTMEFRLYNATQGRELAAKRYTGKRSDLRRITHTFSDDIMQTMTGERGPFTGKIAFVSTESGNKEIYLMDYDGHNVQRLTKNRSINLNPDFSPNGRELAYTSYRRGNPDLFRREIFTGTEAVVSSHRGINVTGTWSPDGKQLALAMSRDGNSEIYAISRDGRDPRRLTTHQAIDVSPAWSPDGKRIAFVSDRLGKPQVFIMNADGSDVRRLTTSGAYNVSPRWSPKGDRLVYCRQEGGFQIYSIATDGTGDTRLTSEGSNEHPRWSPDGRFLTFSSTRDGGEAIYVMRSDGSGQTRVYRSKGKASHPTWSPRW” the “soluble on expression in E. coli” value was “not soluble”.
With “MGSDKIHHHHHHENLYFQGMIIRYATPDDIEDMVSIFIDAYNFPGPRESVKSSFEISLEVQPDGCLLAFLKDEPVGMGCIFFYNKQAWIGLMGVKKAYQRRGIGTEVFRRLLEIGRRKVDTIRLDASSQGYGLYKKFKFVDEYRTVRYELMERPIKRVEGVVEVNKIPNWVKEIDKKAFGDDRIRVLEAYMRRGARLLCAENEGFGLVYRGKIGPLVADSPRVAEKILLKAFQLGAREIIIPEVNKDALELIKIFKPSQVTSCMRMRLGSKIEEKVDIYYGILAYAKG” the “soluble on expression in E. coli” value was “soluble”.
With “MGSDKIHHHHHHENLYFQGMRYLSKDILEEVITQRPSDSYKSNFGRVVLIGGNRQYGGAIIMSTEACINSGAGLTTVITDVKNHGPLHARCPEAMVVGFEETVLLTNVVEQADVILIGPGLGLDATAQQILKMVLAQHQKQQWLIIDGSAITLFSQGNFSLTYPEKVVFTPHQMEWQRLSHLPIEQQTLANNQRQQAKLGSTIVLKSHRTTIFHAGEPFQNTGGNPGMATGGTGDTLAGIIAGFLAQFKPTIETIAGAVYLHSLIGDDLAKTDYVVLPTKISQALPTYMKKYAQPHTAPDSELLEQKRSR” the “soluble on expression in E. coli” value was “soluble”.
With “MGSDKIHHHHHHENLYFQGMTEKSQEPTAALDAEQVAAYLSQHPEFFVEHDELIPELRIPHQPGDAVSLVERQVRLLRERNIEMRHRLSQLMDVARENDRLFDKTRRLVLDLLDATSLEDVVSTVEDSLRHEFQVPYVSLILFSDSSVSVGRSVSSAEAHQAIGGLLSGGKTVCGVLRPHELAFLFGESDRDEIGSAAVVSLSFQGLHGVLAIGSPDPQHYKSSLGTLFLGYVAEVLARVLPRFSSPLRSVR” the “soluble on expression in E. coli” value was “soluble”.
With “MGSDKIHHHHHHETLRAFQRKAYESTEKTNCVCFFIQEALEIAENLEHLATDPNYQKPPLFGVPVSIKESIHVKNLDSTAGYAQKINNPSDANSVSVDQLIRLGAVPFVHTNIPIALLSYGCSNGVYGTTLNPLDNSRVPGGSSGGEAALVSLGGSVLGIGTDVGGSIRTPASFCGLAGFKSSSDRSPQLGKTASIPGRQLLLSVEGPIAKNIDVCVEYLRLKWNDPLLYKKDVYMPPVKFQENLYNSEKPLKIGYYTFDGYQTASPAYQRAVRETVAVLKELGHELVPFEVPQPDHMYSIFCAGATADGGLYLMDSLANDIIPPEADIGFPVAKLPHFIQRLLRKYWHHRRERQIIQELPHDTEEMRQMHEKIEDYRHEFVLAMRAKKLDALVCPAFGCPPPHHGMPNKILGANSYPALYNLIDFAAGTVPVTVQKQEDEVELRKMKTEDSWDRRVVTESKNCIGLPVSVQIATPPYREEMCLRLLKQVEAKIGLYSRTH” the “soluble on expression in E. coli” value was “not soluble”.
For “MGSDKIHHHHHHEVDLYKGGSLREPAYLYPFDQENKNVTAEITIKTNSTINLELLDVYFAPLKYNKHLLIMLTQDDCKPSIYPRTWASINGKPLSGQYYYHYEQLKQDDLPPDIYYLGKTLGCTDGTGKEVRFSFTATLAADDNYMAEESIINLGYSKDNYRFYGRNGILWEDVIDIVNYGNSIAFHNVNTKEIHNIDSIQKHYLIGQDSIQKRLSGRKCKTLSEPDGNIDYTTAAINLDDIKTITAERGEKVYPFHNLTNLENHTLNRVFHDSPDDFKQVIEQERSIPTVDRCAINIGVHSTDAFWTDFLLWLNDTYGKDGEDCIWMPSQEEYYEYNYYRMHGKIEKSADGSTLKLIINLPSQEYFYYPSVTINLKGLKKEDIKSIESNSAVTGLSYGNYQDGVMLNIDCRRFLVEHATHFVEQYEKDKTNQSNKADALYFVNMLKESSKKAELLNRIK”, the “soluble on expression in E. coli” value was “not soluble”.
In the case of “MGSDKIHHHHHHGASEVMWKDFRNEKTIDTVYLGSSFSQVTFNPYIIDEKLGWKSFNMGTPAQPLDQSYVALQNAIKEKKIKRAVLAYGIPTMEDTQNDNARITFAHAMKYGCSWKQKVKMDWDFITDKENINTESSINYLFPWISNSIEWTKTAIENNIKLKKHNNDATENMKTTEWYASYIGKGYAPILTGGFDYKNAITDNTKANYNCIISETAYCKLEKICRLCKDNEVEFIIVNTPKAPYDISMYGADEYFAINSRIEEICTKYGFSYYDFNLIKPQIFQICPEYLNNYEHLSKAGSEAFCNAFSNFIRLHDSGECMTNYFYNEEEYLDSVKDIVQCIKE”, the “soluble on expression in E. coli” value is reported as “not soluble”.
For “MGSDKIHHHHHHGILKERKLAKKRDEVQRYVLMAADVNLGQGNEFREIFAKSVKPLLINLDTGKVDSDANVLDFDERMAAINPETSSTPKKDIAKIKTRANDARVFKVFDDSGKLSSVVVPFYGKGLWSMIYGYVAVEPDFNTIKGLVVYEHGETPGIGDFVTDPAWLNQWKNKQLFDEKGKFAIRLVKGGVKEGDVHGVDAVSGATMTGRGVQRAMEFWFGVEGFQTFFNQLKTSAVQGEFGGEK”, the “soluble on expression in E. coli” value was “not soluble”.
